From the DeepSol protein solubility set

test: soluble on expression in E. coli; label from the status in PepcDB or PDB records

Sequence | soluble on expression in E. coli
MICYEYINDYIRKTIKKNEGFLAELEEFAKENHVPIVHPEVASLLRVIGLTLRPSRVLEVGTAIGYSAILFSTFLEPGGRIDTIDRYELMLEKARANVKKAGLQDVINIIEGDALEVLKCLEHKYDMIFLDAAKGQYPEFLPECLRLLRSGGLLISDNILYKGMVAKDELVVRRKKTIVKRLRNYLETICNTDELETSILPVGDGLAISFKK | not soluble
MEDKVDVLIIGGGASGVTSGIQSARMGANTLILEESTWLGGMLTSAGVSAVDGNYRLPAGLWGEFKNRLSDYYGGLDSLKTGWVSNVLFEPSVGNKILHEMVAAENNLKVWKQACLEEVKRTGDEWVAKVKVEGQGVKTVRAKVMIDATELGDVAKMCGVKYDIGLEHHHHHH | soluble
MRIGQYQLRNRLIAAPMAGITDRPFRTLCYEMGAGLTVSEMMSSNPQVWESDKSRLRMVHIDEPGIRTVQIAGSDPKEMADAARINVESGAQIIDINMGCPAKKVNRKLAGSALLQYPDVVKSILTEVVNAVDVPVTLKIRTGWAPEHRNCEEIAQLAEDCGIQALTIHGRTRACLFNGEAEYDSIRAVKQKVSIPVIANGDITDPLKARAVLDYTGADALMIGRAAQGRPWIFREIQHYLDTGELLPPLPLAEVKRLLCAHVRELHDFYGPAKGYRIARKHVSWYLQEHAPNDQFRRTFNAIEDASEQLEALEAYFENFA | not soluble
MNLEQLINVLGLLVWIAARAVSRVGPHGSGLVYRELHDFYGYLQLDLLGPVVAGNRSVRTWREQADRARGTFAWRSGLNTSRILPVGSMYRGSDALPAGLYRPEEEVFLLLNRCHGPLSTPKNACLAEVGVANATFLSRFNVGDFHGASWENGTAPDGEPGVCLEHHHHHH | not soluble
MAEILRAENIKKVIRGYEILKGISLSVKKGEFVSIIGASGSGKSTLLYILGLLDAPTEGKVFLEGKEVDYTNEKELSLLRNRKLGFVFQFHYLIPELTALENVIVPMLKMGKPKKEAKERGEYLLSELGLGDKLSRKPYELSGGEQQRVAIARALANEPILLFADEPTGNLDSANTKRVMDIFLKINEGGTSIVMVTHERELAELTHRTLEMKDGKVVGEITRV | soluble
MFTTVITPRVSETDGVGHINNTTVPVWFEAGRHEIFKLFTPDLSFKRWRMVIIRMEVDYVNQMYYGQDVTVYTGIERIGNTSLTIYEEIHQNGVVCAKGRSVYVNFNFDTGRPEPIPDDIRVKLREHVWQPGE | soluble
SNAMNLNQLDIIVSNVPQVCADLEHILDKKADYANDGFAQFTIGSHCLMLSQNHLVPLENFQSGIIIHIEVEDVDQNYKRLNELGIKVLHGPTVTDWGTESLLVQGPAGLVLDFYRMK | soluble
MEKHDICPSISEYSYHEILGFYINPVENHLASKNMLIDLDERSVEGLLIFIAECNLGIENRVMEHMNKGIRKCKDHRFT | not soluble
MDEFYISIETVGNNIVERYIDENGKERTREVEYLPTMFRHCKEESKYKDIYGKNCAPQKFPSMKDARDWMKRMEDIGLEALGMNDFKLAYISDTYGSEIVYDRKFVRVANCDIEVTGDKFPDPMKAEYEIDAITHYDSIDDRFYVFDLLNSMYGSVSKWDAKLAAKLDCEGGDEVPQEILDRVIYMPFDNERDMLMEYINLWEQKRPAIFTGWNIEGFDVPYIMNRVKMILGERSMKRFSPIGRVKSKLLQNMYGSKEIYSIDGVSILDYLDLYKKFAFTNLPSFSLESVAQHETKKGKLPYDGPINKLRETNHQRYISYNIIDVESVQAIDKIRGFIDLVLSMSYYAKMPFSGVMSPIKTWDAIIFNSLKGEHKVIPQQGSHVKQSF | soluble
AIAAYRGLHALSQPAYLEDFINSVSNLPQELRDKYGRMGELDALVQRLKNEADALVRELLRKPGSSDPDRGRDTTSLQQMGTKLEQLQAQCVKLNQEKLQLAETAYNTVDQHVRDLDTKLREYEAYLRREGQWPDDLQSLVVNTDHTKMASMKNAAAAAAAAHTAAAPATTARSTQKAPSKGQRKSGEPSTLHIMDDMPIDPNEPRYCYCQNVSYGQMVACESGDCPYEWFHFECVGLTEPPKGEWICPDCRARTGRVR | soluble
MSLDWNRLKPTINQKVSAELNRPFAIRGDLGVVWERQKQETGWRSWVPWPHVHAEDIILGNPPDIPEVTMVHLPRVEATLAPLALLTKTVWLPWIKLEKPDARLIRLSEKNNNWTFNLANDDNKDANAKPSAWSFRLDNILFDQGRIAIDDKVSKADLEIFVDPLGKPLPFSEVTGSKGKADKEKVGDYVFGLKAQGRYNGEPLTGTGKIGGMLALRGEGTPFPVQADFRSGNTRVAFDGVVNDPMKMGGVDLRLKFSGDSLGDLYELTGVLLPDTPPFETDGRLVAKIDTEKSSVFDYRGFNGRIGDSDIHGSLVYTTGKPRPKLEGDVESRQLRLADLGPLIGVDSGKGAEKSKRSEQKKGEKSVQPAGKVLPYDRFETDKWDVMDADVRFKGRRIEHGSSLPISDLSTHIILKNADLRLQPLKFGIAGGSIAANIHLEGDKKPMQGRADIQARRLKLKELMPDVELMQKTLGEMNGDAELRGSGNSVAALLGNSNGNLKLLMNDGLVSRNLMEIVGLNVGNYIVGAIFGDDEVRVNCAAANLNIANGVARPQIFAFDTENALINVTGTASFASEQLDLTIDPESKGIRIITLRSPLYVRGTFKNPQAGVKAGPLIARGAVAAALATLVTPAAALLALISPSEGEANQCRTILSQMKKEGHHHHHH | soluble
MKFEGIYTPAITPLSADGSIDTQAFAEVLEFLVESKVHGIVIGGSTGEYYAHTAEERLALAAHASEVIAGRLPLVVGTGAIRTEDSLAYAEAARAIGADAILVGSPPYALPTSREIAEHVLAVDRAAGLPIMLYNYPARMGVEMDEAFFAAVAGCRNIVAIKESSGSTAQLHRLACRHPRIALSCGWDDQALEFFAWGARSWVCAGSNFIPGEHLALYQACVVENDFAKGRRIMAAMMPLMDFLESGHFVQSIKHGCELAGLRAGGVRAPLKALDEAGKAALAEIVARLKGEVAR | not soluble
MKIIAFYLPQFHQIKENDRWWGKGFTEWTNTKSAQPLFSGHYQPREPYQDFYYDLTTPSVRKWQAEIAKAYGIYGFCYYHYWFKGKRLLETPFNEVLKMKEPDFPFCLSWANEPWTKSWDGLDKHILMPQDYGDISDWKEHFDYLLQAFQDERYIYIDDKPLFIIYRPGHIPDCEKMLNYWNALARANGLKGIYFAETLNSFPLPNINGFDASIQFEPFYTIAHDSSSDINKVIYDSDMQLNVWDYDKVWMYILQRSLPKKKTFPGAFVDWDNTARRKNANSSIFVGSTPEKFTIYLSKQIHRTYSFYNSEFLFINAWNEWAEGTYLEPDKKYGFSYLEGVKNAIDRGMKAYKKDESFLEHHHHHH | not soluble
MSLNGQSEYKGKLDYIIVLGAGLRGKHMLGTQYERVKKAAEYVKENPDVKIVVSGGKGNGEDISEAEAMKQYFLNKGFKNDSIIMEDKSKNTFENLRNSKKILEKISNKKEIRVGVVTSSYHITRAKLLGKRVGLKLYAIPAPINKLLLLQSYTREFFAFYKSIIFDRGEGHHHHHH | not soluble
MTTIFKLLRLPKNTIFQVLRQFKCLDLIAFSVCSKYAKSCVMYSTTSNKQKTIRIEFDDTIQFDLSPITKHICLFELLADQRNVLRKNFNECEMIINGNNFIRTEWSIAGFAIKDWMKHFLDIFGGPKIDIISFSGKGFNRTWFPRDLFRIFNAQSFYCVIDFILKILRSFQYPESLTTCKGKSLGRKPLNTIFILNFKSVKYYGRHQFQLTLNQLLAMNISTLKLLDSAISSKNLNFFLKHWLNGSNKRLEVLEIFGLNAYSPTIIFKNVAYQVILEDEIFSIYNEVFTFGYEIERSCDETRAAIFINSMPEVSHYCFRMIVGEVPNYLIIY | not soluble
MAAVSEFRLLQLPERAQRISLSHMSYNSIFSLSLCSTKKNKRPQGVPIRTLTYEGIEITSDRINRKHPVSDTFLSKAGFLDFYNCTYKSSQFIHKFLIHNTTTVFTRGVPRYNLNDLLVSNGQKIYVQVGRGIIFLEKDVNKFLKHWIRGSNRELKSLAFRAPMNMEIEHAIETILKGICYKDAREEDAASIKLVHICNGNTFKHPIIKISGFRIKRFDGTNATVVIRLLNANSVCFTSYVLHFLHNTSIMAAVSPFRLLQLPQRAQRISLSHMSSVSVFSLSLCATKNTKDLVRSLNLKCIRLCLEFFDDLILSICFEGCIIDFYLYMLNSSQKITPGLCAPKNVQVSTNDVKNFKWERPNLKFRNWIDHFLYILNISTLDVAMGKGVRVKKLSYHILDMTSNETNRTNSVNDTFLSKAEFIVLSNCTYETSQSIHKFLICNNATLFSNVFSPYNLNDLLISNCQNLLVNVDRGNIFLGQDVNKFLKHWIRGSNVTLKCLALEAPMNMERELVIETILEGIDYKVKEEEVSVYKKMLDIFNHGNPSITKIRGFRITRFDGTNCDVVIRTCNPSVMRYSLNMFIF | not soluble
MSSSSESDSEGERKLPLSYRRKRRRDSSSTTNSEVSDNDRKKRQNEKRRSRESSKMKHQKTAKRDKPMWKEEGEISCDSESDVCNSSSSNNRSRCRDRRRRTDYGRRRHRNSDSRSHERWSTRRRQTTPEGNFRCDECGCNHYTLKGLIHHEMNDHNLNAKCHLCQKSFENKKTFREHCELDHTPEVVRCVFCKSSFDQPLEMNDEQWAHFFAHIYGEILYSRLADYEDRALNTA | not soluble
MSLSSTNDTIRRLQRDLLFLQNELRFEKFVRQQHLQNIGKLHREHILDMAVESERQKLLLTNKRYKAQIELLNSEIDKHRSESQAALNRRVKWENDFNNKIKALREEKKAWKSEESELKSSIESLISQLESIRNSQIDIAFSKNQLELKLQLYETKLKEYEQHLSCVNISKKQVSSSSDTSFGNTKMDSSMILSNSEAVSDEQERELIESEKHRMKLESENLHLQANIELLKKDLEAINVVYEAKIFDLEKRLSSEANAPELHNPVNLNYDAQLSKISEIKENYDELLTRYRELEGKFLESQAEVEELKNFQKPLVDTGSSIHSSPGLQQSKFIIRNDSLHPKVGPPRRQSTDTSRSTFRQYEGHHHHHH | soluble
MGSDKIHHHHHHVQKMAEGSHSAITLEAGKYRATVDPLGAALRTLHWGERELVWGYPEGRPQLAQGQILLPWPNRIDHGRYSFGGTTYQLEITEPELDNAIHGLTSTLLWQPSQITADSVRFTLAFDGAPGYPFRMEFWVCYSLDPDHGLHVRIGAQNTGDGPAPYGHGSHNYLTLGLPVDEVTLQLPAAEWQPVNERMIPTGPVRSVAGTDYDFRTPRQVGPTVLDTAFTGLRFDEAGRSWTVLSAGELCVGLWADDSHPWLQVFSADYPGPERRRHLAVEPMTCPPNAFVTGTDLIVLDPGQSIESSFGITSTPE | not soluble
AIRVADLLQHITQMKCAEGYGFKEEYESFFEGQSAPWDSAKKDENRMKNRYGNIIAYDHSRVRLQTIEGDTNSDYINGNYIDGYHRPNHYIATQGPMQETIYDFWRMVWHENTASIIMVTNLVEVGRVKCCKYWPDDTEIYKDIKVTLIETELLAEYVIRTFAVEKRGVHEIREIRQFHFTGWPDHGVPYHATGLLGFVRQVKSKSPPSAGPLVVHCSAGAGRTGCFIVIDIMLDMAEREGVVDIYNCVRELRSRRVNMVQTEEQYVFIHDAILEACL | soluble
MGHHHHHHSHMEAEESEKAATEQEPLEGTEQTLDAEEEQEESEEAACGSKKRVVPGIVYLGHIPPRFRPLHVRNLLSAYGEVGRVFFQAEDRFVRRKKKAAAAAGGKKRSYTKDYTEGWVEFRDKRIAKRVAASLHNTPMGARRRSPFRYDLWNLKYLHRFTWSHLSEHLAFERQVRRQRLRAEVAQAKRETDFYLQSVERGQRFLAADGDPARPDGSWTFAQRPTEQELRARKAARPGGRERARLATAQDKARSNKGLLARIFGAPPPSESMEGPSLVRDS | not soluble
